Reference: publication PMC9742257

Tests used:
[1] = target: N-terminal tagged 3XFLAG artemin construct (A. fransciscina); test: cryo-EM structure; single particle cryo-EM, 0.2-1.5 mg/ml protein on Quantifoil grids, 300 keV Titan Krios; C1 ab-initio then octahedral symmetry imposed
[2] = target: N-terminal tagged 3XFLAG artemin construct (A. fransciscina); test: native MS; 24mer isolated (manual fixed quad profile of 10,000), then collision induced dissociation (argon); released subunits observed; dimers are held by inter-subunit disulfides
[3] = target: N-terminal tagged 3XFLAG artemin construct (A. fransciscina); test: native MS; intact complex; 200 mM ammonium acetate, 1-2 uM protein, Waters Synapt G2s-i
[4] = target: fluorescent artemin-His (A. fransciscina); test: native MS; 24mer isolated (manual fixed quad profile of 10,000), then collision induced dissociation (argon); released subunits observed; dimers are held by inter-subunit disulfides
[5] = target: fluorescent artemin-His (A. fransciscina); test: native MS; intact complex; 200 mM ammonium acetate, 1-2 uM protein, Waters Synapt G2s-i
[6] = target: artemin with a C-terminal 6xHis tag (A. fransciscina); test: native gel or EMSA; Native PAGE of the protein after affinity purification and SEC
[7] = target: artemin with a C-terminal 6xHis tag (A. fransciscina); test: cryo-EM structure; single particle cryo-EM, 0.2-1.5 mg/ml protein on Quantifoil grids, 300 keV Titan Krios; C1 ab-initio then octahedral symmetry imposed
[8] = target: artemin with a C-terminal 6xHis tag (A. fransciscina); test: native MS; 24mer isolated (manual fixed quad profile of 10,000), then collision induced dissociation (argon); released subunits observed; dimers are held by inter-subunit disulfides
[9] = target: artemin with a C-terminal 6xHis tag (A. fransciscina); test: native MS; intact complex; 200 mM ammonium acetate, 1-2 uM protein, Waters Synapt G2s-i

N-terminal tagged 3XFLAG artemin construct (natural protein)
stoichiometry N [1]: 24
stoichiometry N [2]: 2
stoichiometry N [3]: 24

fluorescent artemin-His (natural protein)
stoichiometry N [4]: 2
stoichiometry N [5]: 24

artemin with a C-terminal 6xHis tag (natural protein)
stoichiometry N [6]: 24
stoichiometry N [7]: 24
stoichiometry N [8]: 2
stoichiometry N [9]: 24
